According to patent US10500174B2, “Pharmaceutical composition for preventing or treating degenerative brain disease” (SOONCHUNHYANG UNIVERSITY INDUSTRY ACADEMY COOPERATION …, priority 2016, dated 2019):

Assays:
[1] = system: HeLa cells; assay: Evaluation of cellular uptake of ibuprofen conjugate (confocal fluorescence); type: cell-based; details: 10 μM, 37° C., 30 min, confocal laser scanning microscope
Experimental: HeLa cells were cultured at 37° C. in wet air containing 5% CO2 in a DMEM (high-glucose Dulbecco's Modified Eagle's Medium) containing penicillin-added 10% (v/v) FBS (fetal bovine serum). Subculturing was performed every 2 to 3 days until the cells became subconfluent.
HeLa cells (1×10^5 cells per well) were seeded on a 35 mm coverglass dish (SPL Ltd., Korea) and cultured for 24 hr, after which the medium was removed, and the HeLa cells were washed with cold PBS (×1) (Dulbecco's phosphate buffered saline, pH 7.4). The resulting cells were cultured at 37° C. for 30 min in 3 ml of DMEM containing 10 μM Compound 8 or 10 μM Compound 9, after which the medium was removed, and the HeLa cells were washed five times with cold PBS. The intracellular internalization and intracellular localization of the compound were investigated through fluorescence, achieved using fluorescein, using a confocal laser scanning microscope (Olympus Fluoview FV1000, N.A. 1.30, 40×, planApo, oil immersion lens). The fluorescence of FITC was analyzed at an excitation wavelength of 488 nm and an emission wavelength of 500 to 530 nm, and all experiments were performed three times.

[2] = Plasma stability test (HPLC); type: in vitro ADME; details: human plasma, 37° C.
Experimental: In order to evaluate plasma stability, a homogeneous solution of Compound 8 ([…]) was prepared. An aliquot thereof was injected into the plasma (human, Sigma, USA) so as to reach a final concentration of 50 μg/ml, followed by vortexing and culturing at 37° C. for 0, 3, 6, 9, 12, 15, 18, 21 and 24 hr. The plasma solution (200 μl) was then mixed with 1 ml of MeOH to prevent hydrolysis of Compound 8. This solution was added with biotin (internal standard) in distilled water (100 μl, 5 μg/ml) and centrifuged at 2000 rpm for 10 min. The supernatant was collected and dried in air. The residue was dissolved in distilled water (2 ml) and centrifuged at 2000 rpm for 10 min. The supernatant thus obtained was analyzed using HPLC through the following method.
10 μl of the clean supernatant obtained through the above method was introduced into the HPLC system. The UV detector was set at 260 nm and the flow rate was 1.0 ml/min for a running time of 10 to 15 min. The isocratic mobile phase system consisted of MeOH/H2O (30/70), and the column oven was maintained at 37° C. using a C18-column (Agilent, ZORBAX, 4.6×250 mm, 5 μm).
HPLC chromatograms were obtained at each interval, and the remaining amount of Compound 8 was calculated and expressed as a percentage by subtracting the concentration of ibuprofen, released based on the area under the curve, from the sum of the initial concentration of Compound 8 and the internal standard.

[3] = In-vivo distribution in mouse tissue (fluorescence imaging of tissue flakes); details: 94.6 mg kg^−1 intraperitoneal, after 20 min
Experimental: After 20 min, the mice administered with the above solution were perfused with PBS (pH 7.4) containing paraformaldehyde (4%), and the main organs (brain, heart, lungs, kidneys, spleen and liver) thereof were cultured overnight in PBS (phosphate buffered saline) containing sucrose (0.5 M). A cryoprotectant was added thereto and the above tissue was cut into 15 μm flakes using a cryostat, transferred to a coated slide glass and then dried. Each flake was washed with PBS, treated with Triton X-100 (0.3%) at room temperature for 15 min, and analyzed using an Axioplan2 fluorescence imaging microscope. As a control, deionized water (500 μl) was injected into other mice, and the same procedures as above were performed, after which the compound represented by green fluorescence of FITC in each tissue was compared with autofluorescence of the control.

| Molecule | cellular uptake / intracellular FITC fluorescence [1] | hydrolysis relative to the initial time (0 hr) ([2]; 50 μg/ml, after culture for 3 hr) | decrease of the amount remaining ([2]; 50 μg/ml, next culture time of 21 hr (3 to 24 hr)) | half-life and stability in the plasma (in words) ([2]; up to 24 hr) | distribution in brain (green fluorescence of FITC) [3] |
| --- | --- | --- | --- | --- | --- |
| CC(C)Cc1ccc(C(C)C(=O)NCC(=O)OC[C@H](OC(=O)CCCCCN(CCCNC(=N)N)CCCNC(=N)N)[C@@H](OC(=O)CCCCCN(CCCNC(=N)N)CCCNC(=N)N)[C@H](OC(=O)CCCCCN(CCCNC(=N)N)CCCNC(=N)N)[C@@H](COC(=O)CCCCCNC(=S)Nc2ccc3c(c2)C(=O)OC32c3ccc(O)cc3Oc3cc(O)ccc32)OC(=O)CCCCCN(CCCNC(=N)N)CCCNC(=N)N)cc1.Cl.Cl.Cl.Cl.Cl.Cl.Cl.Cl (stereo partly drawn) [Compound 8, 1-O-(2-aminoacetoxy-ibuprofen)-2,3,4,5-tetra-O—[N-{bis-(3-guanidinopropyl)}-6-aminohexanoyl]-6-O-[6-(fluoresceinyl-5-thioureido)-hexanoyl]-D-sorbitol 8HCl] | strong green fluorescence that is predominant in the cytoplasm | about 5% | ~8% | long half-life and considerable stability | – |
| fluoresceinyl (S)-2-(2-(4-isobutylphenyl)propanamido)-acetate [Compound 9] | did not show fluorescence in the cells | – | – | – | not distributed in the brain |
